This data set concerns rLDHA (Homo sapiens). Put plainly: SPR. The settings on record: His-tag pull-down: protein on beads in 50 mM Na3PO4, 300 mM NaCl, 0.01% Tween-20, pH 8.0, RNA binding 2 h in 3.25 mM Na3PO4, 70 mM NaCl.

pKd: −log10 of the molar value.

Consider HULC lncRNA (in vitro transcribed), for which the pKd was 7.54.

The values above are taken from publication PMC7308313.
